# Values of other authors as cited in publication PMC7596073.
# pKd: −log10 of the molar value. Several values for one entry are separate records, joined by “and”; a condition that tells them apart may be missing. Equal entries are not always repeated.
# Biological target: IL-18BP (Homo sapiens) (UniProt O95998)
# Sequence (O95998 31-194): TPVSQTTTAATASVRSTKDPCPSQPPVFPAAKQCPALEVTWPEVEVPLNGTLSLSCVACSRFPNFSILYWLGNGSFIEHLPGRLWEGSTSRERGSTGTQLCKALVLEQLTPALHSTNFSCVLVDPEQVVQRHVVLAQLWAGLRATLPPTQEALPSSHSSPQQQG
# Chain of IL-18 (Q14116 37-193): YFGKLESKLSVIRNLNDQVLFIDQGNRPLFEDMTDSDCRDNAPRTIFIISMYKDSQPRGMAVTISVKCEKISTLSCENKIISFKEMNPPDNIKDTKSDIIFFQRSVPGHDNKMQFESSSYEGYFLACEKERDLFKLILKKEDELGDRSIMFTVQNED
substance,measurement,value
IL-18 (from UniProt Q14116),pKd,10.40 and 9.40
